Test [1] has as its target human Kallikrein-related peptidase 7 (hKLK7) (human), P49862. The test can be described thus: activity assay.
In test [2] the target is human serum albumin (HSA) (human), P02768. The test is described as follows: fluorescence polarization.

Positions of bridges follow the written chain, without caps; N, C: chain ends. Non-standard residues stand in square brackets, D forms with d. Primed or numbered codes have the meaning given here. Chains are numbered I, II in the order given. No end group written: not given here. *: point of attachment. Palmitoyl = CCCCCCCCCCCCCCCC(=O)*; hArg = N=C(N)NCCCC[C@H](N)C(=O)O; Nle = CCCC[C@H](N)C(=O)O; PEG2″ = not defined here

Chain of human Kallikrein-related peptidase 7 (hKLK7) (human), P49862 (P49862 30-253 limits assumed): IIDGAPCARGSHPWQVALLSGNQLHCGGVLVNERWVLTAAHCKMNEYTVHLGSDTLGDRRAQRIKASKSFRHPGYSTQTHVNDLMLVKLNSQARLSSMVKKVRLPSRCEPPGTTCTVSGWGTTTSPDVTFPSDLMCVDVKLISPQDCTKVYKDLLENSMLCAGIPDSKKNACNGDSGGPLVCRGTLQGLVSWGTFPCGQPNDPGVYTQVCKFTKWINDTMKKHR

B1: KLK7 inhibitor 278-tag (final KLK7 inhibitor) (peptide)
peptide 1: PCLY[Nle]A[hArg]CGKG
peptide 2: {fluorescein-PEG2″}-EYEK(Palmitoyl)EYE
modifications: bridge I:2-I:8; not fully specified (bridges); also: chain 2 C-terminus joined via PEG2 to Lys side chain of GKG linker
On to B1, for which, in test [1], the Ki (commonly a measure of affinity in units of concentration, obtained from inhibition or displacement) came out at 7.4 nM. Further, the Kd (commonly a measure of binding affinity in units of concentration) in test [2] came to 164 nM.
